In PMC5338821, “Structure determination of a major facilitator peptide transporter: Inward facing PepTSt from Streptococcus thermophilus crystallized in space group P3_(1)21” (PLoS ONE, 2017):

Molecular target: the molecule itself
Experiment: SEC; PepTSt solubilized and purified in LMNG (0.01%), final SEC step

B1: peptide transporter PepTSt from Streptococcus thermophilus (wild-type) (natural protein)
chain: MEDKGKTFFGQPLGLSTLFMTEMWERFSYYGMRAILLYYMWFLISTGDLHITRATAASIMAIYASMVYLSGTIGGFVADRIIGARPAVFWGGVLIMLGHIVLALPFGASALFGSIILIIIGTGFLKPNVSTLVGTLYDEHDRRRDAGFSIFVFGINLGAFIAPLIVGAAQEAAGYHVAFSLAAIGMFIGLLVYYFGGKKTLDPHYLRPTDPLAPEEVKPLLVKVSLAVAGFIAIIVVMNLVGWNSLPAYINLLTIVAIAIPVFYFAWMISSVKVTSTEHLRVVSYIPLFIAAVLFWAIEEQGSVVLATFAAERVDSSWFPVSWFQSLNPLFIMLYTPFFAWLWTAWKKNQPSSPTKFAVGLMFAGLSFLLMAIPGALYGTSGKVSPLWLVGSWALVILGEMLISPVGLSVTTKLAPKAFNSQMMSMWFLSSSVGSALNAQLVTLYNAKSEVAYFSYFGLGSVVLGIVLVFLSKRIQGLMQGVE
notes: PepTSt, major facilitator superfamily peptide transporter of Streptococcus thermophilus; Dimer in LMNG and DDM, monomer in DM and NM; also called Ce27; source: Escherichia coli C41, membrane solubilization, purified (IMAC, SEC) in DDM, DM, NM or LMNG; not shown: hexahistidine, C-terminal, cleaved
With B1 the “stoichiometry N” value was 2.
